Assay results reported in patent US20260049138A1 (Chugai, published 2026).

Molecular target: T1, CD3ε homodimer protein (human, UniProt P07766 23-126, limits assumed, sulfo-tag or biotin label in the ECL assays; amine-coupled to the chip in SPR)
T1 construct: also called human CD3ε homodimer protein; CD3 (CD3ε)
Test: SPR Biacore T200; CD3ε homodimer on CM4 chip;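 also: Single-residue variant antibodies injected as analyte over CD3ε homodimer immobilized by amine coupling, run at 25 °C in HBS-EP+ buffer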

T1 sequence (P07766 23-126 limits assumed): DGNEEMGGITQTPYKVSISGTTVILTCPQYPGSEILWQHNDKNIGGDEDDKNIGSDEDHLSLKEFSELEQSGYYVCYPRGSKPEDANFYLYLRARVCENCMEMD

| ratio of amounts bound Z=Y/X (altered form / CE115HA000) | Binder |
| --- | --- |
| 0.66 | CE115HA000 A56Y one-arm antibody (antibody, human IgG1, kappa, L234A L235A, N297A, name in Kabat numbering) heavy: QVQLVESGGGVVQPGRSLRLSCAASGFTFSNAWMHWVRQAPGKGLEWVAQIKAKSNNYYTYYAESVKGRFTISRDDSKNSLYLQMNSLKTEDTAVYYCRYVHYGAYYGVDAWGQGTTVTVSSASTKGPSVFPLAPSSKSTSGGTAALGCLVKDYFPEPVTVSWNSGALTSGVHTFPAVLQSSGLYSLSSVVTVPSSSLGTQTYICNVNHKPSNTKVDKKVEPKSCDKTHTCPPCPAPEAAGGPSVFLFPPKPKDTLMISRTPEVTCVVVDVSHEDPEVKFNWYVDGVEVHNAKTKPREEQYASTYRVVSVLTVLHQDWLNGKEYKCKVSNKALPAPIEKTISKAKGQPREPQVYTLPPSRCELTKNQVSLSCAVKGFYPSDIAVEWESNGQPENNYKTTPPVLDSDGSFFLVSKLTVDKSRWQQGNVFSCSVMHEALHNHYTQKSLSLSPDYKDDDDK EPKSSDKTHTCPPCPAPELLGGPSVFLFPPKPKDTLMISRTPEVTCVVVDVSHEDPEVKFNWYVDGVEVHNAKTKPREEQYNSTYRVVSVLTVLHQDWLNGKEYKCKVSNKALPAPIEKTISKAKGQPREPQVCTLPPSRDELTKNQVSLWCLVKGFYPSDIAVEWESNGQPENNYKTTPPVLDSDGSFFLYSKLTVDKSRWQQGNVFSCSVMHEALHNRYTQKSLSLSP light: DIVMTQSPLSLPVTPGEPASISCRSSQSLVHSNRNTYLHWYQQKPGQAPRLLIYKVSNRFSGVPDRFSGSGSGTDFTLKISRVEAEDVGVYYCGQGTQVPYTFGQGTKLEIKRTVAAPSVFIFPPSDEQLKSGTASVVCLLNNFYPREAKVQWKVDNALQSGNSQESVTEQDSKDSTYSLSSTLTLSKADYEKHKVYACEVTHQGLSSPVTKSFNRGEC |
| 0.99 | CE115HA000 A60D one-arm antibody (antibody, human IgG1, kappa, L234A L235A, N297A, name in Kabat numbering) heavy: QVQLVESGGGVVQPGRSLRLSCAASGFTFSNAWMHWVRQAPGKGLEWVAQIKAKSNNYATYYDESVKGRFTISRDDSKNSLYLQMNSLKTEDTAVYYCRYVHYGAYYGVDAWGQGTTVTVSSASTKGPSVFPLAPSSKSTSGGTAALGCLVKDYFPEPVTVSWNSGALTSGVHTFPAVLQSSGLYSLSSVVTVPSSSLGTQTYICNVNHKPSNTKVDKKVEPKSCDKTHTCPPCPAPEAAGGPSVFLFPPKPKDTLMISRTPEVTCVVVDVSHEDPEVKFNWYVDGVEVHNAKTKPREEQYASTYRVVSVLTVLHQDWLNGKEYKCKVSNKALPAPIEKTISKAKGQPREPQVYTLPPSRCELTKNQVSLSCAVKGFYPSDIAVEWESNGQPENNYKTTPPVLDSDGSFFLVSKLTVDKSRWQQGNVFSCSVMHEALHNHYTQKSLSLSPDYKDDDDK EPKSSDKTHTCPPCPAPELLGGPSVFLFPPKPKDTLMISRTPEVTCVVVDVSHEDPEVKFNWYVDGVEVHNAKTKPREEQYNSTYRVVSVLTVLHQDWLNGKEYKCKVSNKALPAPIEKTISKAKGQPREPQVCTLPPSRDELTKNQVSLWCLVKGFYPSDIAVEWESNGQPENNYKTTPPVLDSDGSFFLYSKLTVDKSRWQQGNVFSCSVMHEALHNRYTQKSLSLSP light: DIVMTQSPLSLPVTPGEPASISCRSSQSLVHSNRNTYLHWYQQKPGQAPRLLIYKVSNRFSGVPDRFSGSGSGTDFTLKISRVEAEDVGVYYCGQGTQVPYTFGQGTKLEIKRTVAAPSVFIFPPSDEQLKSGTASVVCLLNNFYPREAKVQWKVDNALQSGNSQESVTEQDSKDSTYSLSSTLTLSKADYEKHKVYACEVTHQGLSSPVTKSFNRGEC |
